Patent US20130236458A1 (AbbVie / Abbott, published 2013)
Values belong to the binder of their own block, whether it stands above or below them.

Key:
Recombinant Human IL-13 [1] = target: T1, Recombinant Human IL-13 (human, UniProt P35225 35-146, limits assumed); experiment: cell-based or functional assay
Recombinant Human IL-17 [2] = target: T2, Recombinant Human IL-17 (human, UniProt Q16552 20-155, limits assumed); experiment: cell-based or functional assay
T2 sequence (looked up): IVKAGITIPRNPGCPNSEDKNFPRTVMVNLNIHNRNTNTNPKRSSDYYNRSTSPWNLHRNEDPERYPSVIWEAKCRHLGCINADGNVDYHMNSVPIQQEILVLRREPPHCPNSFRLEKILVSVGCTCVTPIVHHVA

Recombinant Human IL-13 [3] = target: T1, Recombinant Human IL-13; experiment: SPR (Biacore)
Summary of the method: (§1)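 Antibodies or DVD-Ig captured on anti-mouse IgG (Fcγ) CM5 surface; antigen injected at 10–200 nM in HBS-EP, pH 7.4, 25 °C, 25 µL/min. kon and koff from global 1:1 Langmuir fit; KD = koff/kon.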

Recombinant Human IL-17 [4] = target: T2, Recombinant Human IL-17; experiment: SPR (Biacore)
Summary of the method: as §1

T1 sequence (P35225 35-146 limits assumed): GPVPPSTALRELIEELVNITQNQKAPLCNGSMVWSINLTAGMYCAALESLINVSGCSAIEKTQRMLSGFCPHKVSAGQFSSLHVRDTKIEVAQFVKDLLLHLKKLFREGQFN

N-Terminal VD IL13 Neutralization Assay IC50 (Recombinant Human IL-13 [1]): 89 pM | C-Terminal VD IL17 Neutralization Assay IC50 (Recombinant Human IL-17 [2]): 16.4 pM | Kd (Recombinant Human IL-13 [3]): 34 pM | koff (Recombinant Human IL-13 [3]): 2.6e-05 s⁻¹ | kon (Recombinant Human IL-13 [3]): 760000 M⁻¹ s⁻¹ | Kd (Recombinant Human IL-17 [4]): 75 pM | koff (Recombinant Human IL-17 [4]): 9.4e-06 s⁻¹ | kon (Recombinant Human IL-17 [4]): 130000 M⁻¹ s⁻¹
B1: DVD2166 (bispecific antibody)
VH: EVQLVQSGAEVKKPGASVKVSCKASGYTFTTYGVSWVRQAPGQGLEWMGEIYPGNYNTYYNEKFRGRVTMTTDTSTSTAYMELRSLRSDDTAVYYCARWRTSYFSDYGYFDYWGQGTTVTVSSASTKGPEVQLVQSGAEVKKPGSSVKVSCKASGYTFTDYEIHWVRQAPGQGLEWMGVNDPESGGTFYNQKFDGRVTLTADESTSTAYMELSSLRSEDTAVYYCTRYSKWDSFDGMDYWGQGTTVTVSS
VL: DVVMTQSPLSLPVTLGQPASISCRSSQSLVHSHGNTYLHWYQQRPGQSPRLLIYTVSNRFSGVPDRFSGSGSGTDFTLKISRVEAEDVGVYYCSQSTHVPYTFGGGTKVEIKRTVAAPDIQMTQSPSSLSASVGDRVTITCRASSGIISYIDWFQQKPGKAPKRLIYATFDLASGVPSRFSGSGSGTDYTLTISSLQPEDFATYYCRQVGSYPETFGQGTKLEIKR
notes: DVD-Ig; also called DVD2166H; DVD2166L

N-Terminal VD IL13 Neutralization Assay IC50 (Recombinant Human IL-13 [1]): 119 pM | C-Terminal VD IL17 Neutralization Assay IC50 (Recombinant Human IL-17 [2]): 2.5 pM | Kd (Recombinant Human IL-13 [3]): 54 pM | koff (Recombinant Human IL-13 [3]): 3.7e-05 s⁻¹ | kon (Recombinant Human IL-13 [3]): 680000 M⁻¹ s⁻¹ | Kd (Recombinant Human IL-17 [4]): < 2.5 pM | koff (Recombinant Human IL-17 [4]): < 1e-06 s⁻¹ | kon (Recombinant Human IL-17 [4]): 400000 M⁻¹ s⁻¹
B2: DVD2168 (bispecific antibody)
VH: B1 VH
VL: DVVMTQSPLSLPVTLGQPASISCRSSQSLVHSHGNTYLHWYQQRPGQSPRLLIYTVSNRFSGVPDRFSGSGSGTDFTLKISRVEAEDVGVYYCSQSTHVPYTFGGGTKVEIKRTVAAPSVFIFPPDIQMTQSPSSLSASVGDRVTITCRASSGIISYIDWFQQKPGKAPKRLIYATFDLASGVPSRFSGSGSGTDYTLTISSLQPEDFATYYCRQVGSYPETFGQGTKLEIKR
notes: DVD-Ig; also called DVD2168H; DVD2168L

C-Terminal VD IL13 Neutralization Assay IC50 (Recombinant Human IL-13 [1]): 155 pM | N-Terminal VD IL17 Neutralization Assay IC50 (Recombinant Human IL-17 [2]): 10.1 pM | Kd (Recombinant Human IL-13 [3]): < 9.1 pM | koff (Recombinant Human IL-13 [3]): < 1e-06 s⁻¹ | kon (Recombinant Human IL-13 [3]): 110000 M⁻¹ s⁻¹ | Kd (Recombinant Human IL-17 [4]): ≤ 4.3 pM | koff (Recombinant Human IL-17 [4]): ≤ 1e-05 s⁻¹ | kon (Recombinant Human IL-17 [4]): 2.5e+06 M⁻¹ s⁻¹
B6: DVD2177 (bispecific antibody)
VH: EVQLVQSGAEVKKPGSSVKVSCKASGGSFGGYGIGWVRQAPGQGLEWMGGITPFFGFADYAQKFQGRVTITADESTTTAYMELSGLTSDDTAVYYCARDPNEFWNGYYSTHDFDSWGQGTTVTVSSASTKGPSVFPLAPEVQLVQSGAEVKKPGASVKVSCKASGYTFTTYGVSWVRQAPGQGLEWMGEIYPGNYNTYYNEKFRGRVTMTTDTSTSTAYMELRSLRSDDTAVYYCARWRTSYFSDYGYFDYWGQGTTVTVSS
VL: EIVLTQSPDFQSVTPKEKVTITCRASQDIGSELHWYQQKPDQPPKLLIKYASHSTSGVPSRFSGSGSGTDFTLTINGLEAEDAGTYYCHQTDSLPYTFGPGTKVDIKRTVAAPDVVMTQSPLSLPVTLGQPASISCRSSQSLVHSHGNTYLHWYQQRPGQSPRLLIYTVSNRFSGVPDRFSGSGSGTDFTLKISRVEAEDVGVYYCSQSTHVPYTFGGGTKVEIKR
notes: DVD-Ig; also called DVD2177H; DVD2177L

C-Terminal VD IL13 Neutralization Assay IC50 (Recombinant Human IL-13 [1]): 115 pM | N-Terminal VD IL17 Neutralization Assay IC50 (Recombinant Human IL-17 [2]): 8.9 pM | Kd (Recombinant Human IL-13 [3]): < 19 pM | koff (Recombinant Human IL-13 [3]): < 1e-06 s⁻¹ | kon (Recombinant Human IL-13 [3]): 52000 M⁻¹ s⁻¹ | Kd (Recombinant Human IL-17 [4]): 2.1 pM | koff (Recombinant Human IL-17 [4]): 5.4e-06 s⁻¹ | kon (Recombinant Human IL-17 [4]): 2.7e+06 M⁻¹ s⁻¹
B7: DVD2175 (bispecific antibody)
VH: EVQLVQSGAEVKKPGSSVKVSCKASGGSFGGYGIGWVRQAPGQGLEWMGGITPFFGFADYAQKFQGRVTITADESTTTAYMELSGLTSDDTAVYYCARDPNEFWNGYYSTHDFDSWGQGTTVTVSSASTKGPEVQLVQSGAEVKKPGASVKVSCKASGYTFTTYGVSWVRQAPGQGLEWMGEIYPGNYNTYYNEKFRGRVTMTTDTSTSTAYMELRSLRSDDTAVYYCARWRTSYFSDYGYFDYWGQGTTVTVSS
VL: EIVLTQSPDFQSVTPKEKVTITCRASQDIGSELHWYQQKPDQPPKLLIKYASHSTSGVPSRFSGSGSGTDFTLTINGLEAEDAGTYYCHQTDSLPYTFGPGTKVDIKRTVAAPSVFIFPPDVVMTQSPLSLPVTLGQPASISCRSSQSLVHSHGNTYLHWYQQRPGQSPRLLIYTVSNRFSGVPDRFSGSGSGTDFTLKISRVEAEDVGVYYCSQSTHVPYTFGGGTKVEIKR
notes: DVD-Ig; also called DVD2175H; DVD2175L

C-Terminal VD IL13 Neutralization Assay IC50 (Recombinant Human IL-13 [1]): 506 pM | N-Terminal VD IL17 Neutralization Assay IC50 (Recombinant Human IL-17 [2]): 1.1 pM | Kd (Recombinant Human IL-13 [3]): < 5 pM | koff (Recombinant Human IL-13 [3]): < 1e-06 s⁻¹ | kon (Recombinant Human IL-13 [3]): 200000 M⁻¹ s⁻¹ | Kd (Recombinant Human IL-17 [4]): 11 pM | koff (Recombinant Human IL-17 [4]): 2.1e-05 s⁻¹ | kon (Recombinant Human IL-17 [4]): 1.9e+06 M⁻¹ s⁻¹
B9: DVD2171 (bispecific antibody)
VH: EVQLVQSGAEVKKPGSSVKVSCKASGYTFTDYEIHWVRQAPGQGLEWMGVNDPESGGTFYNQKFDGRVTLTADESTSTAYMELSSLRSEDTAVYYCTRYSKWDSFDGMDYWGQGTTVTVSSASTKGPSVFPLAPEVQLVQSGAEVKKPGASVKVSCKASGYTFTTYGVSWVRQAPGQGLEWMGEIYPGNYNTYYNEKFRGRVTMTTDTSTSTAYMELRSLRSDDTAVYYCARWRTSYFSDYGYFDYWGQGTTVTVSS
VL: DIQMTQSPSSLSASVGDRVTITCRASSGIISYIDWFQQKPGKAPKRLIYATFDLASGVPSRFSGSGSGTDYTLTISSLQPEDFATYYCRQVGSYPETFGQGTKLEIKRTVAAPDVVMTQSPLSLPVTLGQPASISCRSSQSLVHSHGNTYLHWYQQRPGQSPRLLIYTVSNRFSGVPDRFSGSGSGTDFTLKISRVEAEDVGVYYCSQSTHVPYTFGGGTKVEIKR
notes: DVD-Ig; also called DVD2171H; DVD2171L

The next lines start with the binder.

B3: DVD2172 (bispecific antibody)
VH: EVQLVQSGAEVKKPGASVKVSCKASGYTFTTYGVSWVRQAPGQGLEWMGEIYPGNYNTYYNEKFRGRVTMTTDTSTSTAYMELRSLRSDDTAVYYCARWRTSYFSDYGYFDYWGQGTTVTVSSASTKGPEVQLVQSGAEVKKPGSSVKVSCKASGGSFGGYGIGWVRQAPGQGLEWMGGITPFFGFADYAQKFQGRVTITADESTTTAYMELSGLTSDDTAVYYCARDPNEFWNGYYSTHDFDSWGQGTTVTVSS
VL: DVVMTQSPLSLPVTLGQPASISCRSSQSLVHSHGNTYLHWYQQRPGQSPRLLIYTVSNRFSGVPDRFSGSGSGTDFTLKISRVEAEDVGVYYCSQSTHVPYTFGGGTKVEIKRTVAAPEIVLTQSPDFQSVTPKEKVTITCRASQDIGSELHWYQQKPDQPPKLLIKYASHSTSGVPSRFSGSGSGTDFTLTINGLEAEDAGTYYCHQTDSLPYTFGPGTKVDIKR
notes: DVD-Ig; also called DVD2172H; DVD2172L
N-Terminal VD IL13 Neutralization Assay IC50 (Recombinant Human IL-13 [1]): 111 pM | C-Terminal VD IL17 Neutralization Assay IC50 (Recombinant Human IL-17 [2]): 678 pM | Kd (Recombinant Human IL-13 [3]): 33 pM | koff (Recombinant Human IL-13 [3]): 2.9e-05 s⁻¹ | kon (Recombinant Human IL-13 [3]): 890000 M⁻¹ s⁻¹ | Kd (Recombinant Human IL-17 [4]): 26000 pM | koff (Recombinant Human IL-17 [4]): 0.00017 s⁻¹ | kon (Recombinant Human IL-17 [4]): 6800 M⁻¹ s⁻¹

B4: DVD2174 (bispecific antibody)
VH: B3 VH
VL: DVVMTQSPLSLPVTLGQPASISCRSSQSLVHSHGNTYLHWYQQRPGQSPRLLIYTVSNRFSGVPDRFSGSGSGTDFTLKISRVEAEDVGVYYCSQSTHVPYTFGGGTKVEIKRTVAAPSVFIFPPEIVLTQSPDFQSVTPKEKVTITCRASQDIGSELHWYQQKPDQPPKLLIKYASHSTSGVPSRFSGSGSGTDFTLTINGLEAEDAGTYYCHQTDSLPYTFGPGTKVDIKR
notes: DVD-Ig; also called DVD2174H; DVD2174L
N-Terminal VD IL13 Neutralization Assay IC50 (Recombinant Human IL-13 [1]): 85 pM | C-Terminal VD IL17 Neutralization Assay IC50 (Recombinant Human IL-17 [2]): 12.6 pM | Kd (Recombinant Human IL-13 [3]): 36 pM | koff (Recombinant Human IL-13 [3]): 2.8e-05 s⁻¹ | kon (Recombinant Human IL-13 [3]): 790000 M⁻¹ s⁻¹ | Kd (Recombinant Human IL-17 [4]): 98 pM | koff (Recombinant Human IL-17 [4]): 1.8e-05 s⁻¹ | kon (Recombinant Human IL-17 [4]): 180000 M⁻¹ s⁻¹

B5: DVD2173 (bispecific antibody)
VH: B7 VH
VL: B6 VL
notes: DVD-Ig; also called DVD2173H; DVD2173L
C-Terminal VD IL13 Neutralization Assay IC50 (Recombinant Human IL-13 [1]): 2140 pM | N-Terminal VD IL17 Neutralization Assay IC50 (Recombinant Human IL-17 [2]): 8 pM | Kd (Recombinant Human IL-13 [3]): 120 pM | koff (Recombinant Human IL-13 [3]): 3.7e-05 s⁻¹ | kon (Recombinant Human IL-13 [3]): 310000 M⁻¹ s⁻¹ | Kd (Recombinant Human IL-17 [4]): 3.6 pM | koff (Recombinant Human IL-17 [4]): 9e-06 s⁻¹ | kon (Recombinant Human IL-17 [4]): 2.5e+06 M⁻¹ s⁻¹

B8: DVD2167 (bispecific antibody)
VH: EVQLVQSGAEVKKPGSSVKVSCKASGYTFTDYEIHWVRQAPGQGLEWMGVNDPESGGTFYNQKFDGRVTLTADESTSTAYMELSSLRSEDTAVYYCTRYSKWDSFDGMDYWGQGTTVTVSSASTKGPEVQLVQSGAEVKKPGASVKVSCKASGYTFTTYGVSWVRQAPGQGLEWMGEIYPGNYNTYYNEKFRGRVTMTTDTSTSTAYMELRSLRSDDTAVYYCARWRTSYFSDYGYFDYWGQGTTVTVSS
VL: B9 VL
notes: DVD-Ig; also called DVD2167H; DVD2167L
C-Terminal VD IL13 Neutralization Assay IC50 (Recombinant Human IL-13 [1]): 1700 pM | N-Terminal VD IL17 Neutralization Assay IC50 (Recombinant Human IL-17 [2]): 2.9 pM | Kd (Recombinant Human IL-13 [3]): < 48 pM | koff (Recombinant Human IL-13 [3]): < 1e-06 s⁻¹ | kon (Recombinant Human IL-13 [3]): 21000 M⁻¹ s⁻¹ | Kd (Recombinant Human IL-17 [4]): < 0.37 pM | koff (Recombinant Human IL-17 [4]): < 1e-06 s⁻¹ | kon (Recombinant Human IL-17 [4]): 2.7e+06 M⁻¹ s⁻¹
